The target in experiment [1] is T1, human CEACAM6, full-length, on cells (human, UniProt P40199 35-320).
T1 construct: used both for transfected HeLa cells and for tumor cell lines that express CEACAM6 endogenously; also called TPP-4639; HeLa human CEACAM6
T1 sequence: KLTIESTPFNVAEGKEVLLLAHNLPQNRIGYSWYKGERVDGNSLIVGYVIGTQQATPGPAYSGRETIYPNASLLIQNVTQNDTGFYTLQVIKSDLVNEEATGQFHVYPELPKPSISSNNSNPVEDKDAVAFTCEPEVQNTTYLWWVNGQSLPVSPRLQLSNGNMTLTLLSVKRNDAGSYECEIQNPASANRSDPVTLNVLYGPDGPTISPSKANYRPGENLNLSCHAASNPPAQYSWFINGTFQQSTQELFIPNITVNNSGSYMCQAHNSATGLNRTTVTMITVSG
Put plainly: FACS, transfected HeLa cells. How it is done:
(§1) For FACS experiments HeLa wild type cells were cultured in RPMI-1640, 10% FCS, while CEACAM-receptor transfected HeLa cells received in addition 0.5% Gentamycin (stock 10 mg/ml, Fa. PAA) and 200 μg/ml Hygromycin B (stock 50 mg/ml, Invitrogen). Cells were washed 3 times with PBS w/o Ca²⁺/Mg²⁺ and were detached from the culture plate non-enzymatically with EDTA dissociation buffer (Gibco). Cells were washed in cold FACS buffer (PBS w/o Ca²⁺/Mg²⁺ and heat-inactivated 3% FCS) and were counted using a countess machine (Invitrogen). 10⁵ cells per well were plated and incubated with the respective primary antibody (5 μg/ml) for 1 h at 4° C. on a plate shaker. […] After 2 times washing the cells were resuspended in 100 μl FACS buffer and were analysed on a FACS Canto II machine (Beckton Dickinson) or a FACS Array (Beckton Dickinson).
(§2) For EC₅₀ analysis, the primary antibodies were used at increasing concentrations in a range from 0.1 nM to 100 nM. Half maximal binding values (EC₅₀) were determined by plotting the median fluorescence intensity signal against the concentration (logarithmic scale). Curve fitting of data was performed using the Graph Pad prism analysis software.
A general note: In flow cytometry, cells or beads pass a laser one at a time.

Experiment [2] deals with T2, human CEACAM8, full-length, on transfected HeLa cells (human, UniProt P31997 35-320).
T2 construct: also called TPP-4190; HeLa human CEACAM8
T2 sequence: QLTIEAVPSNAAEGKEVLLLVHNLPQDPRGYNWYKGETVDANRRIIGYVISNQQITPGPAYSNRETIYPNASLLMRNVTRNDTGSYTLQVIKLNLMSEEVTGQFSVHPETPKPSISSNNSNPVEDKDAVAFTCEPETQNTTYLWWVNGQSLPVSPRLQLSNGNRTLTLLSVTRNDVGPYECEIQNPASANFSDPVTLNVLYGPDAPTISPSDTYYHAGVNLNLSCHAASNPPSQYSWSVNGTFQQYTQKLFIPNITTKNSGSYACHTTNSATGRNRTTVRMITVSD
Put plainly: FACS, transfected HeLa cells. Here is the method: as §1, §2

For experiment [3], the target named is T3, human CEACAM1, full-length, on transfected HeLa cells (human, UniProt P13688 35-526).
T3 construct: also called TPP-4185; HeLa human CEACAM1
T3 sequence: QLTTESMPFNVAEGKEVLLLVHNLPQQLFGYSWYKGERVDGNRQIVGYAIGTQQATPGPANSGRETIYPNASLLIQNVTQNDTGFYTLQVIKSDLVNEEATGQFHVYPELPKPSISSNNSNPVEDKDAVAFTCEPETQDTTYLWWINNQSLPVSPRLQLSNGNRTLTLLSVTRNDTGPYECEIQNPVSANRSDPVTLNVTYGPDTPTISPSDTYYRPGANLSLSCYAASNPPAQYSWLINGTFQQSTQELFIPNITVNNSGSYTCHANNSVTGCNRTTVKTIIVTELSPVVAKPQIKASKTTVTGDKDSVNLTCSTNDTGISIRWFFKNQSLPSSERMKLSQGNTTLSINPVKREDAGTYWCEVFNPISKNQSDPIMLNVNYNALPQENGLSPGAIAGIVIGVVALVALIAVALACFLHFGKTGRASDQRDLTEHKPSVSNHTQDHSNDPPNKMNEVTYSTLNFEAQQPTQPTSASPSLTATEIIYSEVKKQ
Put plainly: FACS, transfected HeLa cells. How it is done:
as §1, §2

Experiment [4] deals with T4, Macaca fascicularis CEACAM6-Domain 1-His (expressed in E. coli) (Macaca fascicularis).
T4 construct: entry includes the His tag; also called TPP-2453; Recombinant single domain 1 of Macaca fascicularis CEACAM6
T4 chain: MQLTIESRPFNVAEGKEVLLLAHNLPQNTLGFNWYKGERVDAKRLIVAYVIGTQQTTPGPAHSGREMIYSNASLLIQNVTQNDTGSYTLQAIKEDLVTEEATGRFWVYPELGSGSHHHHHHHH
The experiment is described as follows: SPR, antibody captured, antigen as analyte. Here is the method: (§3) Surface plasmon resonance (SPR) experiments for quantitative binding analyses were performed either using a Biacore T100, Biacore T200 or a Biacore 4000 instrument (GE Healthcare Biacore, Inc.) equipped with Series S Sensor Chips CM5 (GE Healthcare Biacore, Inc.). Binding assays were carried out at 25° C. with assay buffer HBS-EP+(10 mM HEPES pH 7.4, 150 mM NaCl, 3 mM EDTA, 0.05% Surfactant P20). Antibodies were captured with an anti-hIgG capture antibody covalently immobilized to the chip surface via amine coupling chemistry. Reagents for amine coupling (1-ethyl-3-(3-dimethylaminopropyl) carbodiimide hydrochloride (EDC), N-hydroxysuccinimide (NHS), ethanolamine-HCl pH 8.5) were used from the Amine Coupling Kit (GE Healthcare, product code BR-1000-50). Anti-hIgG, anti-mIgG capture antibodies and immobilization buffer (10 mM sodium acetate pH 5.0) were used from the Human Antibody Capture Kit (GE Healthcare, BR-1008-39) and the Mouse Antibody Capture Kit (GE Healthcare, BR-1008-38), respectively. The sensor chip surface was activated with a freshly prepared solution of 0.2 M EDC and 0.05 M NHS passed over the chip surface for 420 s at a flow rate of 10 μl/min, followed by an injection of anti-hIgG or anti-mIgG capture antibody (dissolved to 25 μg/ml in immobilization buffer) for 180 s at a flow rate of […]. Excess of activated groups were blocked with a 1 molar solution of ethanolamine injected at a flow rate of 10 μl/min for 420 s.
(§4) CEACAM antigens were used as analyte to determine KD values. Antibodies were captured for 20 s at a flow rate of 10 μl/min prior to each analyte injection.

Experiment [5] deals with T5, Human CEACAM6-Domain 1-His (expressed in E. coli), wild-type (human).
T5 construct: entry includes the His tag; also called hDOM1
T5 chain: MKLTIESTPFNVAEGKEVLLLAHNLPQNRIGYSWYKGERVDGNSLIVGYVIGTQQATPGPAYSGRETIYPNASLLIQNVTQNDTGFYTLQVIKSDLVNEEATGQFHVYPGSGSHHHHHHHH
The experiment is described as follows: SPR, antibody captured, antigen as analyte. How it is done:
as §3, §4
In general terms: Surface plasmon resonance follows binding to a sensor surface in real time, without labels.

B1: TPP-3714 (antibody, human IgG2, kappa)
heavy: QVTLRESGPALVKPTQTLTLTCTFSGFSLSTYGIGVGWIRQPPGKALEWLAHIWWNDNKYYSTSLKTRLTISKDTSKNQVVLTMTNMDPVDTATYYCARISLPYFDYWGQGTLVTVSSASTKGPSVFPLAPCSRSTSESTAALGCLVKDYFPEPVTVSWNSGALTSGVHTFPAVLQSSGLYSLSSVVTVPSSNFGTQTYTCNVDHKPSNTKVDKTVERKCCVECPPCPAPPVAGPSVFLFPPKPKDTLMISRTPEVTCVVVDVSHEDPEVQFNWYVDGVEVHNAKTKPREEQFNSTFRVVSVLTVVHQDWLNGKEYKCKVSNKGLPAPIEKTISKTKGQPREPQVYTLPPSREEMTKNQVSLTCLVKGFYPSDIAVEWESNGQPENNYKTTPPMLDSDGSFFLYSKLTVDKSRWQQGNVFSCSVMHEALHNHYTQKSLSLSPG
light: DIQLTQSPSFLSASVGDRVTITCKASQNVGTAVAWYQQKPGKAPKLLIYSASNRYTGVPSRFSGSGSGTEFTLTISSLQPEDFATYYCQQYSSYPLTFGGGTKVEIKRTVAAPSVFIFPPSDEQLKSGTASVVCLLNNFYPREAKVQWKVDNALQSGNSQESVTEQDSKDSTYSLSSTLTLSKADYEKHKVYACEVTHQGLSSPVTKSFNRGEC
notes: humanized from TPP-2971, human IgG2; also called TPP-2971HU2-hIgG2Kappa
One may read the EC50 as the concentration that produces a half-maximal response. Read a low EC50 as an effect from little substance. As usually defined, the Kd is the concentration at which binding is half-saturated. Low values mean a tighter complex, high ones a looser complex. As for B1, in experiment [1], a half-maximal response (EC50) required 1 nM. The binding result in experiment [2] and in experiment [3] was “no binding (tested: 5 µg/ml)” in each case. For the same molecule, the figures for the Kd in experiment [4] and in experiment [5] were 3.2 nM and 3.7 nM, respectively.

B2: TPP-3323 (antibody, human IgG2, kappa, V domains shown)
VH: QVTLKESGPGILQPSQTLSLTCSFSGFSLTTYGIGVGWIRQPSGKGLEWLAHIWWNDNKYYNTALKSRLTISKDTSNNQVFLKIASVDTADTATYYCARISLPYFDYWGQGTTLTVSS
VL: DIVMTQSQKFMSTSVGDRVSITCKASQNVGTAVAWYQQKPGQSPKLLIYSASNRYTGVPDRFTGSGSGTDFTLTISNMQSEDLADYFCQQYNNYPLTFGAGTKLELKR
notes: human IgG2 chimera; also called TPP-3187X1-hIgG2; hIgG2 chimera of TPP-3187
For B2, the EC50 in experiment [1] amounted to 0.6 nM. Also, the FACS median fluorescence in experiment [1] lay in the range of 10 to 100 medianfluorescence. Further, the binding result in experiment [2] and in experiment [3] was “no binding (tested: 5 µg/ml)” throughout. In addition, the Kd stood at 6.9 nM in experiment [4] and 9 nM in experiment [5].

B3: TPP-3308 (antibody, human IgG2, kappa, V domains shown)
VH: QVTLKESGPGILQPSQTLSLTCSFSGFSLSTYGIGVGWIRQPSGKDLEWLAHIWWNDNKYYNTALKSRLTISKDTSNNQVFLKIASVDTADTATYYCARISLPYFDYWGQGTTLTVSS
VL: DIVMTQSQKFMSTSVGDRVSITCKASQNVGTAVAWYQQKPGQSPKLLIYSASNRYTGVPDRFTGSGSGTDFTLTISNMQSEDLADYFCQQYSSYPLTFGAGTKLELKR
notes: human IgG2 chimera; also called TPP-2971X1-hIgG2Kappa; hIgG2 chimera of TPP-2971
In turn, B3 came in with an EC50 in experiment [1] of 0.45 nM. Besides, the FACS median fluorescence in experiment [1] lay in the range of 10 to 100 medianfluorescence. Besides, the binding result in experiment [2] and in experiment [3] was “no binding (tested: 5 µg/ml)” in each case. The Kd was determined as 5.4 nM in experiment [4] and 9.5 nM in experiment [5].

Source of the values: US20200181261A1 (Bayer, published 2020).
